Data published in patent publication US20250388697A1 (UNIVERSITY OF MASSACHUSETTS, published 2025).

Target: T1, endogenous murine SOD1 WT (in non-transgenic mouse spinal cord lysate) (mouse, UniProt P08228 2-154)
T1 construct: Tested only as a component of clarified spinal cord lysate; also called marine SOD1 WT (as printed once)
Test: competitive ELISA: Nb54 (0.2 µg/ml) on immobilized SOD1 G93A with Non-Tg mouse spinal cord lysate as competitor
Procedure: A competitive ELISA was used to assess a potential interaction between nanobody and SOD1 derived from an ALS mouse model as follows. […] All research involving animals for the following post-mortem tissue processing was reviewed and approved by the Institutional Animal Care and Use Committee (IACUC) at the University of Massachusetts Chan Medical School.
Serial dilutions were prepared in 25 μl of assay buffer (0.2% (w/v) BSA in PBS). […] A statistical analysis was performed as described below and in the figure legend.

T1 sequence (P08228 2-154 limits assumed): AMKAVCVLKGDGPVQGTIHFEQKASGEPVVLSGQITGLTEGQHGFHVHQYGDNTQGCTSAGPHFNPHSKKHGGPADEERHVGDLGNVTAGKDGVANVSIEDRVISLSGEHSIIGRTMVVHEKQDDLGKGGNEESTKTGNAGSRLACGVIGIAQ

B1: Nb54 with a non-cleavable his-tag (used in the competitive ELISA) (VHH)
VHH: QVQLVESGGGWVQAGGSLRLSCVVSGTNFNDRSMGWYRQAPGKERELVATLSYGGRRNYVDAVKARFTMSRDNRKNTTYLLMNDLEPDDTAVYYCAAGHVLESVVPATTWIEYWGQGTQVTVSS
notes: not shown: non-cleavable his-tag
binding result: no binding
